The target of this assay is HLA-DR1 (human (endogenous in WT-100)). The experiment in a line: SEC. On the technique in general: Size exclusion chromatography separates by hydrodynamic size, large species first.

Where no end group is shown, it is not given here. The star is where a group is joined. AMCA = 7-amino-4-methyl-coumarin-3-acetic acid, Cc1c(CC(=O)*)c(=O)oc2cc(N)ccc12

From article PMC2119237 come the findings set out here.

B1: AMCA-SP3(1-16), synthetic self-peptide SP3 labelled at the NH2 terminus (peptide)
peptide: {AMCA}-AILEFRAMAQFSRKTD
The molecule B1 came in with a binding capacity relative to IM(18-29) of 3 fold.
